Results as given in patent US20260125484A1 (GMAX BIOPHARM, published 2026).

T1: human endothelin receptor A (hETAR) (human, UniProt P25101 21-427)
T1 construct: GenBank AAB20278; co-expressed with Aequorin in the calcium flux assay; also called human ETAR; CHO-DHFR-hETAR
T1 sequence: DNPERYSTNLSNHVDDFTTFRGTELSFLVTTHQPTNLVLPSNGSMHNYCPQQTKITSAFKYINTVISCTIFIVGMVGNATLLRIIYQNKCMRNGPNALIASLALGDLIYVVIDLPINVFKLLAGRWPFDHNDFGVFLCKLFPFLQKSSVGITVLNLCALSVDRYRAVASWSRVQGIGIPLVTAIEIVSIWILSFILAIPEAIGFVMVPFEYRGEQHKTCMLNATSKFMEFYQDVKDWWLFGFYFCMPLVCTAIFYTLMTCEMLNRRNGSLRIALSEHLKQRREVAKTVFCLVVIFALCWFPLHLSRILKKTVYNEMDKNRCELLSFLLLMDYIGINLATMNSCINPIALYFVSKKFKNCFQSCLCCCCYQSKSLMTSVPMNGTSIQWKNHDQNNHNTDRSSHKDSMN


Assays:
[1] = target: T1, human endothelin receptor A (hETAR); test: FACS on CHO-DHFR-ETAR cells
Protocol: 10⁵ CHO-DHFR-hETAR cells were digested and collected with PBS containing 10 mM EDTA, separately added into 1.5 mL EP tubes, the supernatant was discarded after centrifugation, and the negative control sample was resuspended in a flow loading buffer (PBS, 2% FBS). Positive treatment group cells in each tube were added with 200 μL of the antibody supernatant, and incubated at room temperature; after the completion of the incubation, the cells were centrifuged at 1500 rpm, the supernatant was discarded, the cell precipitate was washed once with a flow loading buffer, and centrifuged again, and the cells were resuspended; 1:50 diluted FITC labeled goat anti-mouse fluorescent secondary antibody (BD Pharmingen) was added to the cell resuspension solution at 200 μL/well, and the cells were incubated at room temperature for 30 min in the dark; and the cells were centrifuged, the supernatant was discarded, the cell was washed once with a flow loading buffer, and centrifuged, the cell precipitate was resuspended with a flow loading buffer for on-machine detection. The supernatant expressing recombinant anti-ETAR functional antibody was specifically bound to CHO-DHFR-ETAR cells expressing ETAR. The gray peaks and dotted line peaks were negative controls; and the solid line peak corresponding to the hybridoma cell supernatant shifted obviously to the right.

[2] = target: T1, human endothelin receptor A (hETAR); test: cell-based or functional assay

Binder | binding result [1] | IC50, calcium flux inhibition curve [2]
ETAR antibody A-9 (antibody, mouse IgG1, V domains shown) VH: EVQLQQPGGGLVQPGGSLTLSCATSGFTFSSYGMSWVRQTPAKRLELVATISTNGATANYPDSVKGRFTISRDNAKSTLYLQMRSLKSEDTAMYYCATEKGAMGYWGQGTSVTVSS VL: DVLMTQTPLSLPVSLGDQASISCRSSQNIVHSTGNTYLEWYLQKPGQSPKLLIYKVSNRFSGVPNRFRGSGSGTDFTLKITRVEAEDLGIYYCFQGSHFPFTFGSGTKLEIKR |  | 88 nM
ETAR antibody A-7 (antibody, mouse IgG1, V domains shown, also called L7H7) VH: EVHLVESGGGLVQPGGSLKLSCAASGFTFSTYGMSWVRQTPDKRLELVATINTNGGTTYYRDSVKGRFTISRDNAKNTLYLQMSSLKSDDTAMYYCARDYGAMDYWGQGTSVTVSS VL: DVLMTQTPLSLPVSLGDHASISCRSSQYIVHSTGTTYLEWYLQKPGQSPQLLIYKVSNRFSGVPDRFTGSGSGTDFTLRISRVEAEDLGVYFCFQGSHFPFTFGSGTKLEIKR | binds | 

Further lines, results first:

binding result [1] | IC50, calcium flux inhibition curve [2] | Binder
binds |  | ETAR antibody A-12 (antibody, mouse IgG1, V domains shown, also called L12H12) VH: EVKLVESGGRLVQPGNSLRLSCATSGFTFSDYYMSWVRQTPGRALEWLSFIRNRANGYTTEYSASVKGRFTISRDNSQSILYLHMSTLRPEDSATYYCVRDSYHYGYFDVWGAGTTVTVSS VL: EIQMTQTPSSLSASLGDRVTITCSASQGINNYLNWYQQKPGGKTRLLIYYTSTLQSGVPSRFSGSGSGTHYSLTISNLEPEDIATYYCQQFSKLRTFGGGTRLEIKR
binds |  | ETAR antibody A-2 (antibody, mouse IgG1, V domains shown, also called L2H2) VH: QIQLVQSGAELAKPGASVRMSCETSGYTFTSYWIHWIKERPGQGLEWIGYINPDTDYSEYNQKFKDKARLTADKSSTTAYMELNSLTFDDSAVYYCASAGYYFFDFWGQGTTLTVSS VL: DIQMTQSPASLSTSVGETVTITCRASENIYSYLAWYQQRQGKSPHLLVNNAKTLAEGVPSRFSGSGSGTHFSLRISGLQPEDFGSYYCQHHYGIPFTFGGGTKLSIKR
